Reference: patent publication US12043671B2, “Antibodies targeting an amphiregulin-derived cell surface neo-epitope” (Gundersen Lutheran Medical Foundation, Inc., priority 2021, dated 2024)

How the values were obtained:
[1] = target: T1, Trunc AREG (fragment that remains cell-bound after cleavage by ADAM17) (Homo sapiens, UniProt P15514); assay: Immunoblot of TRF-conjugated AREG peptides, cleaved mimic; type: binding; conditions: 1 μg/mL antibody, 200 ng TRF-conjugated peptide
T1 construct: host or cells: synthetic peptide conjugated to transferrin
Experimental: Monomethyl auristatin E (MMAE) conjugated 1A3 antibody (1A3-VC-PAB-MMAE) was prepared using a kit (CM11409) from CellMosaic Inc. (Woburn, MA, USA) following the manufacturer's instructions. Maleimide-activated valine-citrulline p-aminobenzylcarbamate (VCPAB) MMAE was coupled directly to the antibody after reduction through alkylation.^13 The specificity of 1A3 and 1A3-VC-PAB-MMAE to peptides representing human cleaved-AREG was confirmed by immunoblotting. Briefly, transferrin (TRF) conjugated peptides representing cleaved and uncleaved AREG (200 ng) were electrophoresed on SDS-PAGE gels, transferred to PVDF membrane and probed with 1 μg/mL of 1A3 and 1A3-VC-PAB-MMAE. Horseradish peroxidase-conjugated goat anti-rabbit IgG was used. Antibody binding was detected with enhanced chemiluminescence (ECL; Amersham, Arlington Heights, IL, USA). Furthermore, the characterization and purity of 1A3-VC-PAB-MMAE were analyzed using hydrophobic interaction chromatography (HIC) and size-exclusion chromatography (Cell Mosaic).

[2] = system: MCF7 cells; assay: Internalization and intracellular localization of 1A3-pHrodo, live-cell imaging; type: cell-based, human; conditions: time course to 2.5 h
Experimental: In order to study internalization, 1A3 was conjugated with pHrodo iFL Red dye using pHrodo iFL Red Microscale Protein Labeling Kit (P36014, Thermo Fisher Scientific). MCF7 cells were seeded in 12 mm Nunc Glass Bottom Dish, at a density of 1 ×10^5 cells/dish. After allowing the cells to attach overnight, the cells were incubated for 60 min with […] Hoechst dye for nuclei staining and LysoTracker® Green DND-26 (Thermo Fisher Scientific) for lysosomal labeling. The cells were then incubated with 1A3-pHrodo (2 μg/mL) for 20 min at 37° C. After washing the wells with PBS, the cells were supplemented with 1× live-cell imaging solution (Molecular probes, Thermo Fisher Scientific). Fluorescence images were acquired at 30 min intervals for 2.5 h with the Olympus 1×71 inverted fluorescence microscope (Olympus, Shinjuku, Tokyo, Japan). TAPI-2 (20 μM)—pre-treatment was performed overnight, with DMSO serving as a control.

[3] = system: MCF7 xenografts; assay: Orthotopic MCF7 breast cancer xenograft in NSG mice; type: in vivo, mouse
Text: In Vivo Antitumor Activity Studies: The animal experiments were approved by the Institutional Animal Care and Use Committee of University of Wisconsin La Crosse (La Crosse, Wisconsin, USA). Four-week-old female NOD.Cg-Prkdc^scid II2rg^tm1Wjl/SzJ mice (NSG; The Jackson Laboratory) were acclimated for 1 week before the experiments. For MCF7 breast cancer xenograft model, the mice were implanted subcutaneously with 0.72-mg 17β-estradiol 90-day release tablets (Innovative Research of America) 3 days prior to cell injection. […] Firefly luciferase expressing MCF7 and MCF7-F cells (2×10^6 cells in a 1:1 mixture of serum-free DMEM and Matrigel) were injected orthotopically into the fourth inguinal mammary fat pad of each mouse. Once the tumors were well established, each cell line cohort was divided into three groups (n=5). Mean tumor volume at the start of treatment was 111 mm^3 for the MCF7 cohorts and 119 mm^3 for the MCF7-F cohorts. The mice were treated by intraperitoneal injection every 4 days for a total of six doses with unconjugated or MMAE conjugated anti-cleaved-AREG 1A3 antibody (5 mg/kg), or vehicle control (PBS). Tumor volumes were calculated from caliper data by using the formula: Volume (mm^3)=(Length×Width^2)/2. Mice were imaged weekly with the in vivo FX PRO imaging system (Carestream Molecular Imaging, Woodbridge, CA, USA) after injecting luciferin (150 mg/kg body weight). Tumor volume and body weight were monitored once a week. Statistical Analysis:
To test in vivo efficacy of 1A3-MMAE, human breast cancer cell lines expressing luciferase were injected orthotopically into NSG mice (one tumor in each inguinal mammary gland). Once the average tumor size reached approximately 100-125 mm^3, mice were randomized to one of three treatment groups: PBS, 1A3 (5 mg/kg) or 1A3-MMAE (5 mg/kg). Mice received intraperitoneal injections every 4 days for six total injections and were monitored for tumor progression or regression. Similar experiments were performed with MCF7 (FIGS. 5A, 5B, and 5C, left panels) and MCF7-F (FIGS. 5A, 5B, and 5C, right panels) xenografts.

[4] = target: T2, cleaved Amphiregulin (Homo sapiens, UniProt P15514); assay: Immunohistochemistry on multiple organ carcinoma tissue microarrays
T2 construct: tissue BioCoreUSA; host or cells: multiple organ carcinoma tissue microarrays (ten tumour types)
T2 sequence (P15514 188-252): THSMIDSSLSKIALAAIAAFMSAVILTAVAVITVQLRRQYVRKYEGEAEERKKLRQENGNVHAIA
Experimental: Two multiple organ carcinoma tissue microarrays were purchased from BioCoreUSA (Philadelphia, PA, USA). The slides were deparaffinized in xylene and rehydrated by serial incubations in graded ethanol and then in water in a Histo-Tek® SL Slide Stainer (Sakura Finetek USA, Inc., Torrance, CA, USA). Antigen retrieval was performed in a steamer by boiling slides in a container of citrate buffer (pH 6.0) for 20 min which was then removed for 15 minutes of cooling on the benchtop. Slides were washed in 1× Wash buffer (Dako Agilent, Santa Clara, CA, USA) and endogenous peroxidase was quenched by incubating with Dako Dual Endogenous Enzyme Block for 10 minutes. Slides were washed in 1× Wash buffer, blocked (5% rabbit/10% goat serum in PBS), and immunostained with goat anti-AREG antibody (15 μg/mL; AF262, R&D Systems) or rabbit anti-cleaved AREG 1A3 antibody (10 μg/mL) overnight at 4° C. Slides were washed four times in 1× Wash buffer, followed by incubation for 45 minutes at room temperature in 1:100 dilution of rabbit anti-goat immunoglobulins/HRP or ready-to-use goat antirabbit HRP labelled polymer (Dako). […] The staining intensity was assessed semi-quantitatively using a four-point scale (Negative=0, Low=1, Medium=2, High=3) by two investigators working independently on blinded samples. […]

recognition of truncated AREG peptide by immunoblot [1]: specifically recognized
neoplastic cells negative for immunostaining ([4]; 370 evaluable cores, ten tumor types): No neoplastic cells were negative
tumors stained in the highest score for cleaved Amphiregulin ([4]; breast, prostate, liver and lung tumors): At least 50%
B1: 1A3: Rabbit monoclonal IgG specific to cleaved AREG; VH SEQ ID NO: 3, VL SEQ ID NO: 4 (antibody, V domains shown)
VH: QSVKESEGRLVTPGTPLRLTCTVAGYSLSRYHMCWVRQAPGKGLEWIGMIGGSGRTDYASWAKGRFTISKTSTTVDLKITSPTTEDTATYFCSTVYTDSDGDFWGPGTLVTVSS
VL: AELDMTQTPSSKSVPVGGTVTINCQASESVYSNDRLAWFQQKPGQPPKLLIYYASTLASGVPSRFKGSGSGTQFTLTISDLECADAATYYCQSCYDMSSYGVAFGGGTELEIL
modifications: 1A3 antibody, Heavy chain; 1A3 antibody, Light chain
trafficking after internalization (colocalization of pHrodo and Lysotracker signals) [2]: trafficked to the lysosome after internalization
longitudinal luciferase imaging of xenografts ([3]; MCF7, 5 mg/kg): exhibited tumor growth
tumor volume response by caliper measurements ([3]; MCF7, 5 mg/kg i.p. every 4 days, six doses): continued, sometimes rapid increases in tumor volume
